Two molecules from US20130101549A1 (Biogen, published 2013) can be followed below.

Assay [1] has as its target T1, human LTβR-Ig (human, UniProt P36941 31-227).
T1 construct: Expressed and purified in house; also called hLTbR-Ig; human LTBR-Ig
Put plainly: FACS (LTbR column of Table 2; format not told there).

The target of assay [2] is T2, human HVEM-Ig (human, UniProt Q92956 39-202).
T2 construct: Expressed and purified in house; also called HVEM-Fc; Herpes virus entry mediator-Ig
T2 sequence (looked up): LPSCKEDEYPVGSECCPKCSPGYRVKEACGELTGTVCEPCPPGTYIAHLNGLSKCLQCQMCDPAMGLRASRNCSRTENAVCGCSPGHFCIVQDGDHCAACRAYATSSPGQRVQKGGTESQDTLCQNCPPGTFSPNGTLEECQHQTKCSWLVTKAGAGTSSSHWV
Put plainly: FACS (HVEM column of Table 2; format not told there).

Assay [3] addresses T2, human HVEM-Ig. Put plainly: ELISA on coated HVEM-Ig. On the procedure:
(§1) Human and murine ErbB2-Fc were obtained from R&D Systems. Wells of 96-well plates were coated with 2 ug/ml or 0.2 ug/ml of human or murine HER2-Fc by incubation overnight at 4-8° C. with either of these six proteins (80 ul/well of a 0.2 or 2 ug/ml solution in PBS). Wells were emptied, filled completely with a solution of PBS with 1% BSA (blocking buffer) and incubated at room temperature for 1 hour. Wells were emptied, washed twice PBS containing 0.05% Tween 20 (PBST) and filled with the samples (80 ul/well of 3× dilution series of the standard and supernatants in blocking buffer) prepared in another 96-well plate. After a 2-hour incubation at room temperature, the wells were emptied, washed three times with PBST and filled with a solution of HRP-conjugated goat pAbs anti-human kappa chain (80 ul/well of a 2000-fold dilution in blocking buffer). After 1-hour incubation, the wells were emptied and filled with a solution of HRP substrate prepared freshly. The color was left to develop for 3 minutes and was stopped by addition of an equal volume of 1N H₂SO₄. Absorbance was measured at 450 nm using a Plate Reader (SpectraMax, Molecular Devices). The data was processed and graphs were created using SoftMax Pro software.
Human and murine HVEM-Ig were expressed and purified in house.

In assay [4] the target is human LTβR on tumor cells (human, UniProt P36941 31-435). Put plainly: cell-based or functional assay.
Chain of human LTβR on tumor cells (P36941 31-435): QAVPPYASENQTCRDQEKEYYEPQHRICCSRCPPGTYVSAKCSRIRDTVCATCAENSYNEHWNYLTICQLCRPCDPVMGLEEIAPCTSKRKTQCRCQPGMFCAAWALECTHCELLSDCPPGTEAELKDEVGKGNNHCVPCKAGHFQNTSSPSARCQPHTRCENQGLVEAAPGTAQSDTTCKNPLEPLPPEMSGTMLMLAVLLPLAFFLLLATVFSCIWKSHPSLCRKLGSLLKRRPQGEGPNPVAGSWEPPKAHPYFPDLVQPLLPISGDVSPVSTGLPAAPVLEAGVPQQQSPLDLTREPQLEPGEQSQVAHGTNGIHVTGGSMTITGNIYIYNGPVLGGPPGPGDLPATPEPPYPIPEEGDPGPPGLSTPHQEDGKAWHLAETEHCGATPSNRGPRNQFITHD
For assay [5], the target named is T3, human HER2-Fc (human, UniProt P04626 23-652).
T3 construct: Bought from R&D Systems: homodimeric fusion of the HER2 extracellular domain and human IgG1 Fc; also called human ErbB2-Fc; rhErbB2-Fc; not shown: Fc fragment of human IgG1
Kind of assay: ELISA on coated huHER2-Fc, HRP anti-human kappa; the number is C of the printed 4-P fit (A -0.059, B 0.832, D 1.098, R^2 0.998); x axis: Fab equivalent concentration.

The target in assay [6] is T1, human LTβR-Ig. Kind of assay: ELISA on coated LTbR-Ig. On the procedure:
as §1
Human and murine LTBR-Ig were expressed and purified in house.
On the technique in general: In an ELISA, binding on a coated surface is turned into a signal by an enzyme label.

Assay [7] has as its target T2, human HVEM-Ig. Kind of assay: Octet biolayer interferometry, receptor-Fc on anti-human Fc biosensor, culture supernatant. On the procedure:
(§2) Anti-human Fc-specific biosensors (Fortebio SKU 18-0001) were hydrated in OB (1×PBS supplemented with 1 mg/ml BSA, 0.05% NaN₃, and 0.02% TWEEN 20) for at least five minutes prior to assays. For each assay, the respective receptor—Fc fusion was diluted to 10 μg/ml in OB and allowed to bind to the biosensors for five minutes. The sensors were then incubated in the indicated culture supernatant for an additional five minutes, and subsequently transferred to fresh wells […].
(In BLI a coated tip is dipped into the sample, and binding shifts an interference pattern.)

Assay [8] has as its target T1, human LTβR-Ig. Described as above. As to the method:
as §2

Assay [9] has as its target T3, human HER2-Fc. The description is as above. On the procedure: as §2
For assay [10], the target named is T4, human HER2/ErbB2 on cells (human, UniProt P04626 23-1255).
T4 construct: whole, on cells; also called hHER2/ErbB2; wild type HER2/ErbB
Kind of assay: FACS on HER2-expressing cells.

Assay [11] deals with T3, human HER2-Fc. Put plainly: ELISA on coated HER2-Fc. On the procedure: as §1
For assay [12], the target named is T5, murine HER2-Fc (mouse; human, UniProt P70424 23-653).
T5 construct: extracellular domain; Bought from R&D Systems; also called murine ErbB2-Fc; not shown: Fc fragment of human IgG1
T5 sequence (P70424 23-653): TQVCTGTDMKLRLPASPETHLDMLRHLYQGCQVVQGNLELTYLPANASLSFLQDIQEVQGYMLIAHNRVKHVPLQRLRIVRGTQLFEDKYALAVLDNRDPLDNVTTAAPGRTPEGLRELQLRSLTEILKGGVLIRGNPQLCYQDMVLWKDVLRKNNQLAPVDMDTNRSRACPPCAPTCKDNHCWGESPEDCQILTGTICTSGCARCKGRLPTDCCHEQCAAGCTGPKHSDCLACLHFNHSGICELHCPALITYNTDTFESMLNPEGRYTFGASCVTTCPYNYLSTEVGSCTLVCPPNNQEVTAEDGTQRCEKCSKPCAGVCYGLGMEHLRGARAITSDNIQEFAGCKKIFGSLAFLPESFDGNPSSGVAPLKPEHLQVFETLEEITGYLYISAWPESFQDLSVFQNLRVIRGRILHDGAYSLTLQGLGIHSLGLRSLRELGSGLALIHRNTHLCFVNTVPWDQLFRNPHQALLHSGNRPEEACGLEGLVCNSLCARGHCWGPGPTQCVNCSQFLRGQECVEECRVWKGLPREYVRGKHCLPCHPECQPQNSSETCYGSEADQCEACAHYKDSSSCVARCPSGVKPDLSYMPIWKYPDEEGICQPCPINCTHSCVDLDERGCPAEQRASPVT
Kind of assay: ELISA on coated muHER2-Fc, HRP anti-human kappa; the number is C of the printed 4-P fit (A 0.005, B 1.068, D 0.84, R^2 0.999); x axis: Fab equivalent concentration.

For assay [13], the target named is T6, human LTBR-mIgG fusion.
T6 construct: kept apart from m25 (human Fc); not shown: exact end of the LTBR part
T6 sequence (chain, as listed by the source limits assumed): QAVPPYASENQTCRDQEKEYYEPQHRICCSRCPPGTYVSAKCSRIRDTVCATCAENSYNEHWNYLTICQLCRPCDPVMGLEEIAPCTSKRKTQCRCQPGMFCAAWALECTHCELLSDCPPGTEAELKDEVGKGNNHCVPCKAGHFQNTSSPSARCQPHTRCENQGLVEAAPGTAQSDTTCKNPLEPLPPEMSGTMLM
Put plainly: sandwich ELISA after incubation at 200 ng/ml in human serum (cold or 37°C overnight): HER2-Fc on the plate, human LTBR-mIgG, HRP anti-mouse IgG; the signal needs both bindings at once. As to the method: An ELISA assay was developed to detect LIGHT-Ab fusions after incubation with human sera. Briefly, 200 ng/mL of LIGHT-Ab fusions were incubated overnight in human serum at 37° C. The serum was assayed in sandwich ELISA as follows. HER2-Fc was immobilized to a solid surface, and was used to capture the LIGHT-Ab fusions. The serum incubated fusion proteins were added to the solid surface. Detection was effected using a human LTBR-mIgG fusion to bind to the LIGHT moiety of the fusion. Horseradish peroxidase (HRP) labeled anti-mouse IgG was used to detect bound LIGHT-Ab fusions.

Assay [14] addresses T5, murine HER2-Fc. Kind of assay: ELISA on coated muHER2-Fc, HRP anti-human kappa; the number is C of the printed 4-P fit (A 0.008, B 1.027, D 0.896, R^2 1); x axis: Fab equivalent concentration. As to the method: as §1, with “Wells” for “Human and murine ErbB2-Fc were obtained from R&D Systems. Wells”, “coated” for “coated with 2 ug/ml or 0.2 ug/ml of human or murine HER2-Fc”, “goat antibodies against human kappa chain” for “either of these six proteins”, “5” for “0.2 or 2”
Human and murine HER2-Fc (homodimeric fusion proteins consisting of the extracellular domain of HER2 and the Fc fragment of human IgG1) were obtained from R&D Systems. […]

Assay [15] addresses T3, human HER2-Fc. Put plainly: ELISA on coated huHER2-Fc, HRP anti-human kappa; the number is C of the printed 4-P fit (A 0.006, B 1.142, D 0.89, R^2 1); x axis: Fab equivalent concentration.

T1 sequence (P36941 31-227): as the sequence (chain, as listed by the source limits assumed) above

B1: 71F10 Fab-hLIGHT fusion with the delta 4 linker (BIIB71F10-130) (other)
heavy: EVQLLESGGGLVQPGGSLRLSCAASGFTFSSYGMVWVRQAPGKGLEWVSSISSSGGLTWYADSVKGRFTISRDNSKNTLYLQMNSLRAEDTAVYYCASPPGIAVARDYWGQGTLVTVSSASTKGPSVFPLAPSSKSTSGGTAALGCLVKDYFPEPVTVSWNSGALTSGVHTFPAVLQSSGLYSLSSVVTVPSSSLGTQTYICNVNHKPSNTKVDKKVEPKSCDKLHWRLGEMVTRLPDGPAGSWQERRSHEVNPAAHLTGANSSLTGSGGPLLWETQLGLAFLRGLSYHDGALVVTKAGYYYIYSKVQLGGVGCPLGLASTITHGLYKRTPRYPEELELLVSQQSPCGRATSSSRVWWDSSFLGGVVHLEAGEEVVVRVLDERLVRLRDGTRSYFGAFMV
light: DIQMTQSPSSLSASVGDRVTITCRASQGISNYLAWYQQKPGKVPKLLIYAASTLQSGVPSRFSGSGSGTDFTLTISSLQPEDVATYYCQKYNSALLTFGGGTKVEIKRTVAAPSVFIFPPSDEQLKSGTASVVCLLNNFYPREAKVQWKVDNALQSGNSQESVTEQDSKDSTYSLSSTLTLSKADYEKHKVYACEVTHQGLSSPVTKSFNRGEC
notes: Fab heavy chain - linker - human LIGHT extracellular part; assembles as a trimer of Fab-LIGHT units; also called pBIIB71F10-130; LIGHT fusion #130
For orientation: EC50 means the concentration giving half of the maximal effect. One may read the koff as the rate constant with which the complex falls apart. Low values mean a long-lived complex, high ones a short-lived complex. B1: a half-maximal effect in assay [1] (EC50) was put at 0.2 nM. A half-maximal response in [2] (EC50) required 0.5 nM. The same molecule showed an EC50 in assay [3] of 0.01 nM. For the same molecule, in [4], the “fold difference of gene expression, treated/untreated HT29 cells (qRT-PCR): CCL2 (MCP-1)” value turned out to be 1050 fold; the “fold difference of gene expression, treated/untreated HT29 cells (qRT-PCR): CCL5 (RANTES)” value came out at 1220 fold; the “fold difference of gene expression, treated/untreated HT29 cells (qRT-PCR): CCL7 (MCP-3)” value was -527 fold; the “fold difference of gene expression, treated/untreated HT29 cells (qRT-PCR): CCL21” value was 546 fold. Besides, in assay [4], the “fold difference of gene expression, treated/untreated HT29 cells (qRT-PCR): CCR4” value came out at 1650 fold; the “fold difference of gene expression, treated/untreated HT29 cells (qRT-PCR): CXCL2” value was 1130 fold; the “fold difference of gene expression, treated/untreated HT29 cells (qRT-PCR): CXCL3” value stood at 1090 fold; the “fold difference of gene expression, treated/untreated HT29 cells (qRT-PCR): CXCL5 (ENA-78/LIX)” value is 1810 fold. Besides, in assay [4], the “fold difference of gene expression, treated/untreated HT29 cells (qRT-PCR): CXCL9” value came to 675 fold; the “fold difference of gene expression, treated/untreated HT29 cells (qRT-PCR): CXCL10 (IP-10)” value was determined as 5270 fold; the “fold difference of gene expression, treated/untreated HT29 cells (qRT-PCR): CXCL11 (I-TAC/IP9)” value is 1730 fold; the “fold difference of gene expression, treated/untreated HT29 cells (qRT-PCR): IFNA2” value came to 193 fold. Further, in [4], the “fold difference of gene expression, treated/untreated HT29 cells (qRT-PCR): IL5” value was 940 fold; the “fold difference of gene expression, treated/untreated HT29 cells (qRT-PCR): IL8” value worked out at 373 fold; the “fold difference of gene expression, treated/untreated HT29 cells (qRT-PCR): IL10RA” value came out at 3440 fold; the “fold difference of gene expression, treated/untreated HT29 cells (qRT-PCR): LTB” value amounted to 2910 fold. In addition, the “fold difference of gene expression, treated/untreated HT29 cells (qRT-PCR): TNF” value in assay [4] is 7370 fold. For the same molecule, in [5], the EC50 is 0.00955 µg/mL. The molecule further came in with an EC50 in assay [6] of 0.01 nM. In addition, the off-rate constant (koff) in assay [7] was 0.000122 s⁻¹. The koff in assay [8] came out at 0.000168 s⁻¹. Also, the koff in [9] was 0.000112 s⁻¹. The molecule also had an EC50 in assay [10] of 0.5 nM. In assay [11], this molecule registered an EC50 of 0.05 nM. Also, the EC50 in assay [12] is 0.0114 µg/mL.

B2: 71F10 Fab-hLIGHT fusion with the G4S delta 4 linker (BIIB71F10-131) (other)
heavy: EVQLLESGGGLVQPGGSLRLSCAASGFTFSSYGMVWVRQAPGKGLEWVSSISSSGGLTWYADSVKGRFTISRDNSKNTLYLQMNSLRAEDTAVYYCASPPGIAVARDYWGQGTLVTVSSASTKGPSVFPLAPSSKSTSGGTAALGCLVKDYFPEPVTVSWNSGALTSGVHTFPAVLQSSGLYSLSSVVTVPSSSLGTQTYICNVNHKPSNTKVDKKVEPKSCDKGGGGSLHWRLGEMVTRLPDGPAGSWQERRSHEVNPAAHLTGANSSLTGSGGPLLWETQLGLAFLRGLSYHDGALVVTKAGYYYIYSKVQLGGVGCPLGLASTITHGLYKRTPRYPEELELLVSQQSPCGRATSSSRVWWDSSFLGGVVHLEAGEEVVVRVLDERLVRLRDGTRSYFGAFMV
light: DIQMTQSPSSLSASVGDRVTITCRASQGISNYLAWYQQKPGKVPKLLIYAASTLQSGVPSRFSGSGSGTDFTLTISSLQPEDVATYYCQKYNSALLTFGGGTKVEIKRTVAAPSVFIFPPSDEQLKSGTASVVCLLNNFYPREAKVQWKVDNALQSGNSQESVTEQDSKDSTYSLSSTLTLSKADYEKHKVYACEVTHQGLSSPVTKSFNRGEC
notes: Trimer of Fab-LIGHT units; also called pBIIB71F10-131
B2: the EC50 in assay [1] stood at 0.2 nM; in assay [2], 0.5 nM; in assay [3], 0.01 nM; in assay [6] it was 0.01 nM; in [14], 0.0139 µg/mL; in assay [10] it was 0.5 nM. In addition, the concentration giving a half-maximal response (EC50) was 0.00608 µg/mL in assay [15] and 0.05 nM in assay [11]. In addition, the binding result in [13] is recorded as “binds”. The dissociation rate constant (koff) in [8] was 0.000183 s⁻¹; in assay [9], 0.000307 s⁻¹.
